Measurements taken from US20180244758A1 (MAPP BIOPHARMACEUTICAL, published 2018).

T1: MARV GP (Marburg virus (MARV), UniProt P35253 19-637)
T1 sequence: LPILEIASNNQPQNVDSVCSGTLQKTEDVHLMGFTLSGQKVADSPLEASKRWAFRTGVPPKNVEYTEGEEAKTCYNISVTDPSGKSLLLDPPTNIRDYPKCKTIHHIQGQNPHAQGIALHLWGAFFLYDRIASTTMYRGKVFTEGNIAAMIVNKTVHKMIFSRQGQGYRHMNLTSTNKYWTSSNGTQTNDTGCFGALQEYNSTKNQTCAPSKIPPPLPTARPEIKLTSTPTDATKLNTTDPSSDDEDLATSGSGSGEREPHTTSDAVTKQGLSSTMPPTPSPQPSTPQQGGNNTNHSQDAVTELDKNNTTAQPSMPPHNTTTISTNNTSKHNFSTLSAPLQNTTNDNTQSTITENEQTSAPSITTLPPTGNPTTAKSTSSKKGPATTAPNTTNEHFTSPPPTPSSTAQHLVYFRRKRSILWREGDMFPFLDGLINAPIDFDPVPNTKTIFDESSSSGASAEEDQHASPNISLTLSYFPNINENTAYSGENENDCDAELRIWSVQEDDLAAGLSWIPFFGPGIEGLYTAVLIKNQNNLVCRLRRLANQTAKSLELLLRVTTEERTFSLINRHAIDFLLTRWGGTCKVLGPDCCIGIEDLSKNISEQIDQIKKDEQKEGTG

T2: sGP (UniProt P60170 33-324)
T2 sequence: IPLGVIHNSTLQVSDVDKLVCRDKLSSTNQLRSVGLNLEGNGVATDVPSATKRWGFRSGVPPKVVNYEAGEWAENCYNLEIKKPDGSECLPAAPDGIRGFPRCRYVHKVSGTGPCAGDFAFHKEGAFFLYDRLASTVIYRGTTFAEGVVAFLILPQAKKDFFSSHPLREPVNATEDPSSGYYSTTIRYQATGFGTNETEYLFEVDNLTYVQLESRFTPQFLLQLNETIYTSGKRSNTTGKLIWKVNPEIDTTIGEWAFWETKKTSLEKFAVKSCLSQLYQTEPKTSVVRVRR

T3: GP of authentic (wild-type) SUDV (Sudan virus (SUDV), UniProt Q66814 33-676)
T3 sequence: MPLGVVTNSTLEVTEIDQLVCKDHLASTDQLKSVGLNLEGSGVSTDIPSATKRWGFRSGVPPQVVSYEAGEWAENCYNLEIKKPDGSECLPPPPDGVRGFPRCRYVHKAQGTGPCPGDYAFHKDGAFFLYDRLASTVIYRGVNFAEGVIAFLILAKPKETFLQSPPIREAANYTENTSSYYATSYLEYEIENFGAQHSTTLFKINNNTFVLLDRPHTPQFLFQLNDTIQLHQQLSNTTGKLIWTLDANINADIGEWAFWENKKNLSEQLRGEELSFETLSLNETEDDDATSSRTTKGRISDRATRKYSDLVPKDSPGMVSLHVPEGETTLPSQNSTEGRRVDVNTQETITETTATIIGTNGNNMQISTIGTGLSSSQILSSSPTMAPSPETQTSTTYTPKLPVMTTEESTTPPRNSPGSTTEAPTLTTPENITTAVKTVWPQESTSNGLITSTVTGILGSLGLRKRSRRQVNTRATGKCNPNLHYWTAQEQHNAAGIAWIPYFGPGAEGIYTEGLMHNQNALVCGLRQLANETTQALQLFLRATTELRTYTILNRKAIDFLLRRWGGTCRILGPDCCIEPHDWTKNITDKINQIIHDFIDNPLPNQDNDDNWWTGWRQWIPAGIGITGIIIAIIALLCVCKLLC

T4: GP of authentic (wild-type) EBOV (Ebola virus (EBOV), UniProt P87666 33-676)
T4 sequence: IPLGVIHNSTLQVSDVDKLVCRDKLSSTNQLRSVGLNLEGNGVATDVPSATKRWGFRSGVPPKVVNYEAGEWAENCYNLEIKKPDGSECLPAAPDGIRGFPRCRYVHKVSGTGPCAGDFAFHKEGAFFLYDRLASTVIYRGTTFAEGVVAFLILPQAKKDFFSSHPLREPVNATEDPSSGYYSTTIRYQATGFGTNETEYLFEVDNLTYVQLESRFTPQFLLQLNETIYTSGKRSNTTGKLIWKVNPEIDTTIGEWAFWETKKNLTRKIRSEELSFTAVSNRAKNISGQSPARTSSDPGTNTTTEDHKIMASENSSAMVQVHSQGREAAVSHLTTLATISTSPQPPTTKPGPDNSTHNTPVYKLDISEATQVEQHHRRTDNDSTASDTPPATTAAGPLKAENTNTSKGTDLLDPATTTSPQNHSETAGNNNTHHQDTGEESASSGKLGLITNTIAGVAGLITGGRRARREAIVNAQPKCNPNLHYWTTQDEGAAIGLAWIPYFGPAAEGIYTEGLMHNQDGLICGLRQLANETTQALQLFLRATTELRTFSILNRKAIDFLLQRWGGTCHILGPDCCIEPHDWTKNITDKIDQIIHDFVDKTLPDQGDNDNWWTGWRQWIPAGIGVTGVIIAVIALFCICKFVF

T5: RESTV GP on rVSV particles (Reston virus (RESTV), UniProt Q66799 34-677)
T5 sequence: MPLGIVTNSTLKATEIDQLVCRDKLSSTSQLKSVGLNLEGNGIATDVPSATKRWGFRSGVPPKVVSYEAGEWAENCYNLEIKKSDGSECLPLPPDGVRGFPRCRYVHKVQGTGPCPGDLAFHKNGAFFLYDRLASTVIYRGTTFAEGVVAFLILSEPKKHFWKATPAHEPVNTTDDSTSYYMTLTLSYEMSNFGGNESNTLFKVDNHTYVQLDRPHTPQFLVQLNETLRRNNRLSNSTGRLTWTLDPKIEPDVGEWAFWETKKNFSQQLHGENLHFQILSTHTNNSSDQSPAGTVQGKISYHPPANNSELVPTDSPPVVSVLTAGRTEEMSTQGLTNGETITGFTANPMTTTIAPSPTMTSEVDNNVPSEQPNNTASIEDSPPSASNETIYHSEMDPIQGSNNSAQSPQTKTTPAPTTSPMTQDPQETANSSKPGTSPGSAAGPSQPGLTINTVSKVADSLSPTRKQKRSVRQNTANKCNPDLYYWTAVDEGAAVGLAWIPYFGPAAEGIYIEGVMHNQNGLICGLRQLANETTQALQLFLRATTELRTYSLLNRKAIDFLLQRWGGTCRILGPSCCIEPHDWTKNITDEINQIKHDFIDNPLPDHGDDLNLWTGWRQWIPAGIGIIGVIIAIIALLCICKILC


Key:
[1] = target: T1, MARV GP; assay: ELISA, GP antigen coated
[2] = target: T2, sGP; assay: ELISA, GP antigen coated
[3] = target: T3, GP of authentic (wild-type) SUDV; assay: cell-based or functional assay
[4] = target: T4, GP of authentic (wild-type) EBOV; assay: cell-based or functional assay
[5] = target: GP of authentic (wild-type) BDBV (Bundibugyo virus (BDBV)); assay: cell-based or functional assay
[6] = target: T5, RESTV GP on rVSV particles; assay: cell-based or functional assay

Binder | binding result [1] | binding result [2] | Authentic virus neutralization IC50 [3] [nM] | Authentic virus neutralization IC50 [4] [nM] | Authentic virus neutralization IC50 [5] [nM] | rVSV-GP neutralization IC50 [6] [nM]
mAb PE-87 (antibody, V domains shown) VH: QVQLVQSGVTLVQPGGSLRVSCAASGFTFSSYAMSWVRQAPGKGLEWVSAISGLGGSTYYADSVKGRFTISRDNSKNTLYLQMNSLRAEDTAVYYCAKDHRVWAAGYHFDYWGQGALVTVSS VL: DIVLTQSPSTLSASVGDRVTITCRASQSISSWLAWYQQKPGEAPKLLISDASSLESGVPSRFSGSGSGTEFTLTISSLQPDDFATYYCQQYYSSPTFGGGTKVEIK | no binding (tested: 0.2 µg/ml) | no binding (tested: 0.2 µg/ml) | 0.2 | 0.2 | 0.6 | 0.2
mAb PE-24 (antibody, V domains shown) VH: EVQLVESGGGLVQPGGSLRLSCAASGFTFSSYAMSWVRQAPGKGLEWVSEISGLGGSTYYADSAKGRFTISRDNSKSTLYLQMNSLRAEDTAVYYCAKDHRVWAPGYYFDHWGQGTLVTVSS VL: DIVLTQSPSTLSASVGDRVTITCRASQSISSWLAWYQQKPGKAPKLLIYDASSLESGVPSRFSGSGSGTEFTLTISSLQPDDFATYFCQQYNRSPTFGGGTKVEIK | no binding (tested: 0.2 µg/ml) | no binding (tested: 0.2 µg/ml) | 0.2 | 0.7 | 0.6 | 0.2
mAb PE-05 (antibody, V domains shown) VH: QVQLQESGGGLVKPGRSLRLSCTASGFTFGDYAMSWFRQAPGKGLEWVGFLRSKAYGGTAEYAASVKGRFTMSRDDSKSIAYLQMNSLKTEDTAVYFCTRDGFRGSSWGYSYYGMDVWGQGTTVTVSS VL: not shown | no binding (tested: 0.2 µg/ml) | – | – | 5.2 | – | 22
mAb PE-47 (antibody, V domains shown) VH: EVQLVESGGGLVKPGGSLRLSCAASGFTFSNAWMSWVRQAPGEGLEWVGRIKSKTDGGTIDYAAPVKGRFTISRDDSKNTVYLQMTSLKTEDTAVYYCTTYTEDMQYFDWLLRGGETFDYWGQGTLVTVSS VL: DIQMTQSPSSLSASVGDRVTITCRASQYISTYLNWYQQKPGKAPKLLIYAAYNLQSGVPSRFSGSGSGTDFTLTISSLQPEDFATYYCQQSYSTPGRYTFGQGTKVEIK | no binding (tested: 0.2 µg/ml) | no binding (tested: 0.2 µg/ml) | – | – | – | –
mAb PE-16 (antibody, V domains shown) VH: QVQLVQSGAEVTKPGASVKVSCKASGYTFTTYYMHWVRQAPGQGLEWVGIINPSGGITRYAQKFQGRVTLTRDTSTTTVYMELSSLRSEDTAVYYCARDRYPVLFATDYGMDVWGQGTTVTVSS VL: DIVMTQSPATLSLSPGERATLSCRASQSVSGYLAWYQQKPGQAPRLLIYDASNRATGIPARFSGSGSGTDFTLTISSLEPEDFAVYYCQQRSIWPPGVTFGGGTKVEIK | no binding (tested: 0.2 µg/ml) | no binding (tested: 0.2 µg/ml) | 300 | 0.1 | 0.3 | –
